From publication doi:10.1101/2023.03.23.533937, “From Microstates to Macrostates in the Conformational Dynamics of GroEL: a Single-Molecule FRET Study” (bioRxiv, 2023)

Target: T1, double-ring GroEL construct with the same labeling positions (255C/428C) (E. coli, UniProt P0A6F5 2-548; P0A6F5 2-548, 255C | 428C, AlexaFluor 488 and AlexaFluor 594 attached at the labeling positions 255 and 428 (cysteines))
T1 construct: GroEL subunit, E. coli, with cysteines at the labeling sites E255 and D428; unmodified GroEL subunit, E. coli; GroEL has 14 subunits in two heptameric rings; That the remaining subunits are unmodified wild-type GroEL is surmised from 'the same reassembly procedure'; also called double-ring variant; double-ring construct; source: prepared using the same reassembly procedure as the labeled SR1 …
Test: intramolecular single-molecule FRET of one labeled subunit (conformational read-out); pulsed-interleaved excitation smFRET on diluted, freely diffusing labeled complexes; 1 mM ATP with a stoichiometric excess of GroES relative to GroEL (also with ADP-BeFx in place of ATP); about 22 °C
Conditions: both partners purified

binding result: binds
B1: co-chaperone GroES (natural protein, E. coli)
chain: MNIRPLHDRVIVKRKEVETKSAGGIVLTGSAAAKSTRGEVLAVGNGRILENGEVKPLDVKVGDIVIFNDGYGVKSEKIDNEEVLIMSESDILAIVEA
notes: GroES, co-chaperone of GroEL, E. coli; a heptameric complex; Source and construct of GroES may stand in the supporting information; also called co-chaperonin GroES
